Assay: yeast display, Sf9 membrane polyspecificity reagent, FACS + sequencing; frameworks hold sequencing errors
Procedure, shortened: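 Synthetic nanobody libraries on Saccharomyces cerevisiae BJ5465 were galactose-induced for 36–48 hours, stained 1 hour at 4 °C with 10% biotinylated, detergent-solubilized Sf9 membrane reagent and enriched on streptavidin microbeads. FACS then separated cells into low and high (top ~1%) gates by anti-HA (expression) and streptavidin (reagent binding) fluorescence. Genes were colony-PCR amplified, MiSeq 2 × 250 sequenced and CDR-length filtered. A clone's polyreactivity label is that of its gate of origin.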

Row | Sequence | polyreactivity (PSR sort gate)
1 | QVQLVESGGGLVQAGGSLRLICDASGFTFSPNAMGWYRQAPGKERELVAAIDWSGDRTYYADSVKGRFTISRDNAKNTVYLQMNSLKPEDTAVYYCNDVRRSPGDYSYYYWGQGTQVTVSS | low polyreactivity
2 | QVQLVESGGGLVQAGGSLRLSCAASGFTFSYYAMGWYRQAPGKERELVAAISWNGGSTYYADSVKGRFTISRDNAKNTVYLQMNCLKPEDTAVYYCAADSLLYYYDTGYEYWGQGTQVTVSS | high polyreactivity
3 | QVQLVESGGGLFQAGGSLRLSCAASGSTFGRYAMGWYRQAPGTEREWLAAISRRGGSTYYADSVKGRFTISRDNAKNTVYLQMNSLKPEDSAVYYCATGYPIDLGREFDYWGQGFQVTVSS | high polyreactivity
4 | QVQLQESGGGLVQASGSIFHEPNMGWHRQAPGKERELVATISDGAITNYADSVKGRFTISRDNAKNTVYLQMNSLKPEDTAVYYCAVVVHLYTDLRYWGQDTQVTVSS | high polyreactivity
5 | QVQLVESGGGLVQAGGSLRLSCAAAGRLFGPYAMGWYGQAPGKERELVASISYSGGSTYYADSVKGRFTISRDNAKNTVYLQMNSLKAEDTAVYYCAKGGYWRGYNYWGQGTQVTVSS | low polyreactivity
6 | QVQLVESCGGLVQAGGSLRLSCAASGLTFYRYAMGWYRQAPGKERELVAAISSADRTYYADSVKGRFTISRDNAKNTVYLQMNSLKPEDTAVYYCAARANYFGWTKSYYYWGQGTQVNVSS | high polyreactivity
7 | QVQLVESGGGLVQAGGSLRLSCAASGSIFTYYAMGWYRQAPGKERELVASISWGGGSTYYADSVKGRFTISRDNAKNSVYLQMNSLKPVDTAVYYCATDVYVDYFVGGEYWGQGTQVTVSS | low polyreactivity
8 | QVHLVESGGGLVQAGGSLRLSCAASGFIFYYYAMGWYRQAPGKERELVASISAIGGGTYYADSVNGRFTISRDNAKNTVYLQMNSLKPEDTAVYYCDPDGDGWWWSYVDRYDYWGQGTQVTVSS | low polyreactivity
9 | QVQLVESGGGLVQEGGSLRLSCAASGRIFGVNAMGWYRQAPGKERELVAAIFSGGSTYYADSVKGRFTISRDNAKNTVYLQMNSLKPEDTAVYYCAARFARYDWSMYYWGQGTQVTVSS | low polyreactivity
10 | QVQLVESGGGLVQAGGSLRLSCAASGLILRKYAMGWYRQAPGKEREFVAAITQTGSRSYYADSVKGRFTISRDNAKNTVYLQMNSLKPEDTAVYYCAARGTRAYRTYDYWGQGTQVTVSS | high polyreactivity
11 | QVHLVESGGGLVQAGGSLRLSCSASGSILKYYAMGWYRQAPGKERELVAAISRSGGSTYYADSVKGRFTISRDNAKNTVYLHMNSLKPEDTAVYYCAAYYNFPYHGSDYWGQGTEVTVSS | high polyreactivity
12 | QVQLVESGGGLVQAGGSLRLSCAASGSTFRFNTMGWYRQAPGKERGLVACIAAGTTTNYADSVKGRFTISRDNAKNTVYLQMNSLKPEDAAVYYCAALNAFNTGHWYWGQGTQVTVSS | low polyreactivity
13 | QVQLVESGGGLVQAGGSHRLSSAASGSTFAKNAMGWYRQARGKESELVATISRGGSTNYADSVKGRFTISRDNAKNTVYLQMNSLKPEDTAVYYCNADRVRTAVYSYVYAYGIMNYSGQGTQVTVSS | low polyreactivity
14 | QVQLVESGGGLVQAGGSLRLSCAASGFTFKGNAMGWYRQAPGKERELVAGISRSGRTYYADSVKGRFTISRDNAKNTVYLQMNSLKPEDTAVYYCNARNQGWASLPTMGYWGQGTQVTVSS | high polyreactivity
15 | QVQLVESGGGLVQAGGSLRLSCAASGSIFTTYAMGWYRQAPGKERELVAAISSTSGSTYYADSVKGRFTISGDNAKNTVYLQMTSLKPEDTAVYYCAARGGYWGQGTQVTVSS | low polyreactivity
16 | QVQLQESGGSLVQAGGSLRLSCAASGSISYPRTMGWYRQAPGKEREFVAGIGVGGTTYYADSVKGRFTISRDNAKITVYLQMNSLKPEDTAVYYCARRRSGPSVLYYYWGQGTQVTVSS | low polyreactivity

Row | Sequence | polyreactivity (PSR sort gate)
17 | QVQLVESGGGLVQAGGSLRLSCAASGSIFWYNTMGWYRQAPGKERELVASISWDGGTYYADSVKGRFTISRDNAKNTVYLQMNSLKPEDTAVYYCNVAWYWGYDYWGQGTQVTVSS | low polyreactivity
18 | QVQLVDSGGGLVQAGGSLRLSCAASGSTFRRNAMGWYRQAPGKERELVAAITSSGGGSTYYADSVKGRFTISRDNAKNSVYLQMNSLKPEDSAVYYCAKDFWYRSYDYWGQGTQVTVSS | low polyreactivity
19 | QVQLVESGGGLVQAGGSLRLSCAATGLIIRYYAMGWYRQAPGKEREFVAAITWNGGSTYADSVKGRFTISRDNAKNTVYLQMNSLKPEDTAVYYSAADLSYWDDFDYWGQGTQVTVSS | low polyreactivity
20 | QVQLLESGGGLVQAGGSLRLSCAASGLTYYYAMGWYRQAPGKERELVAAISYSGGRTNYADSVKGRFTISRDNAKNTVYLQMNSLKPEDTAVYFCAAVGPRTDYSGYRYYYWVQGTQVTVSS | high polyreactivity
21 | QVQLQESGGGLVQAGGSLRLSCAASGSIFEELDMGWYRQAPGKEREFVAAIGTGSTTYYADSVKGRFTISRDNAKNTVYLQMNSLKPEDTAVYYCAVTYSVYLPFRYWGQGTQVTVSS | high polyreactivity
22 | QVQLVDSGGGLVQAGGSLRLSCAASGRLFDRNAMGWYRQGPGKERELVARIDPGDDTNYSYSVTGRFTISRDNAKNTVYLQMNSLKPEDTAVYYCATDPDYVLYRTAYYEYDYWGKGTQVTVSS | low polyreactivity
23 | QVQLVESGGGLVQAGGSLRLSCAASGRTFYYNAMGWYRQAHGKERQLVADINWSGVRTYYADSVKGRFTISRDNAKNTVYLQMNSLKPEDTAVYYCAARVGPYSLAVDGFKHGYWGQGTQVTVSS | low polyreactivity
24 | QDQLVESGGGLVQAGGSLRLSCAASGFTFRDYTRGWYRQAPGKERELVAAISLSGGSTYYADSVKGRFTISRDNAKNTVYFQMNSLKPEDTAVYYCAAGYLLWRTWDYGAGHNFWGQGTQVTVSS | high polyreactivity
25 | QVQLVESGGGLVQAGGSLRLSCAASGFIFRSYAMGWYRQAPGKERELVAAISDGGGSTYYADSVKGRFTISRDNAKKTVYLQMNSLKPEDTAVYYCNAVYHPKGPSGYGYWGQGTQVTVSS | low polyreactivity
26 | QVQLVESGGGLVQAGGSLRLSCAASGIIFFRNAMGWYRQAPGKERELVAAISSGGSTYYADSVKGRFTISRDNAKNTVYLQMNSLKPEDTAVYYCNKVVPLYYASYDYWGQVTQVTVSS | low polyreactivity
27 | QVQLVESGGGLVQAGGSLRLSCAASGSIFWQNTMGWYRQAPGKERELVAAISWSGGRTYYADSVKGRFTISRDNAKNTVYLQMNSLKPEDTAVYYCAAAFSPGWWSRHTYDYDYWGQGTQVTVSS | high polyreactivity
28 | QVQLVESGGGLVEAGGSLRLSCAASASIFGLNAMGWYRQAPGKEREFVAAISWSDGSTYYADSVKGRFTISRDNAKNTVYLQMNSLKPEDTAVYYCSKATEYYAESDDYDYWGQGTQVTVSS | low polyreactivity
29 | QVQLVESGGGLVQAGGSLRLSCAASGLTFWRYTMGWYRQAPGKERELVAVITYRGGSTYYADSVKGRFTISRDNAKNTVYLQMNSLKPEDTAVYYCAAGRRTYGLTYDYWGQGTQVTVSS | high polyreactivity
30 | QVQLVESGGGLVQAGGSLRLSCAASGSNFWRNVMGWYRQAPGKERELVAAISSGGSTYYADSVKGRFTISRDNAKNTVYLQMNSLKPEDTEVYYCAAPRYDYWGQGTQVTVSS | high polyreactivity
31 | QVHLVESGGGLVQAGGSLLLSCAASGRILGPNAMGWYIQAPGKERELVAAINSGGSTNYADSVKGRFTISRDNAKNTVYLQMNSLKAEDTAVYYCNAVYGVYDFNYWGQGTQVTVSS | low polyreactivity
32 | QVQLVESGGGLVQAGGSLRLSCAASGRTFRVYAMGWYRQAPWKERELVAAISGRGGRTYYADSVKGRFTISRDNAKNTVYLQMNSLKPEDTAVYYCTADVGVYHDDYWGQGTQVTVSS | high polyreactivity

Source: the nanobody polyreactivity screen of Harvey et al. (2022)
